What was measured:
Experiment in all cases: purified protein
purified protein [1] = substrate: O=C(O)CCC(=O)C(=O)O; format: biochemical, Microcystis aeruginosa; conditions: 1 mM ThDP, 2 mM Mg2+, 100 mM HEPES pH 7.0, 10% glycerol, 25 °C
purified protein [2] = substrate: Cc1ncc(C[n+]2csc(CCO[P@](=O)(O)OP(=O)(O)O)c2C)c(N)n1; conditions: half-saturation of activity, varied: cofactor
purified protein [3] = substrate: Cc1ncc(C[n+]2csc(CCO[P@](=O)(O)OP(=O)(O)O)c2C)c(N)n1; format: biochemical, Microcystis aeruginosa; conditions: 10 mM α-ketoglutarate, 2 mM Mg2+, 100 mM HEPES pH 7.0, 10% glycerol, 25 °C, varied: cofactor
purified protein [4] = substrate: O=C(O)CCC(=O)C(=O)O; format: biochemical, Synechocystis sp. PCC 6803; conditions: saturated ThDP and Mg2+; purified from coexpression with pTf16

Row | Protein | Km (purified protein [1]) [µM] | kcat (purified protein [1]) [s⁻¹] | K0.5 (purified protein [3]) [mM] | further results
1 | MaKGD (Microcystis aeruginosa NIES-843) (protein, full length, pET28a (NdeI/XhoI), E. coli BL21(DE3) with chaperone plasmid pTf16, imidazole-eluted; codon-optimised gene) MGELNTAELLVKCLENEGVEYIFGLPGEENLDVLEALKNSSIKFITTRHEQGAAFMADVYGRLTGKAGVCLSTLGPGATNLMTGVADANLDGAPLVAITGQVGTDRMHIESHQYLDLVAMFAPVTKWNKQIVRPGITPEVVRRAFKTAQSEKPGAVHIDLPENIAAMAADGHPLPLDSQEKVYASYRTLNMAAAVISKAKNPLILAGNGAIRANASEALTEFATALNIPVANTFMGKGVIPYTHPLALWAVGLQQRDLISCAFERSDLIIAVGYDLIEYSPKKWNPDGKLPIIHIGMTPAEIDSSYAPVVEVVGDITDSLIDILKRADRQNKPTPVTAGLKTEIRADYETYANDTGFPIKPQKLIYDLRQVMGPEDIAICDVGAHKMWMARQYHSDCPNTCIISNGFAAMGIAIPGAIAAKLVYPNKRIVAVTGDGGFMMNCQELETALRVGTPFVTLIFNDGGYGLIEWKQLNYFGTSSFIKFGNPDFVKFAESMGLKGYRVESTQDLIPTLEEAFRQEVPTVIDVPVDYGENLRLSQKSGDLSCQIWE | 870 ± 230 | 7.8 ± 0.5 | – | kcat/Km (purified protein [1]): 8970 M⁻¹ s⁻¹; K0.5 (purified protein [2]; 10 mM α-ketoglutarate, 2 mM Mg2+, 100 mM HEPES pH 7.0, 10% glycerol, 25 °C, pH 7.0, 25.0 °C): 0.0056 ± 0.0007 mM
2 | MaKGD (Microcystis aeruginosa NIES-843; Y465A) (protein, full length, pET28a (NdeI/XhoI), E. coli BL21(DE3) with chaperone plasmid pTf16, imidazole-eluted; codon-optimised gene) MGELNTAELLVKCLENEGVEYIFGLPGEENLDVLEALKNSSIKFITTRHEQGAAFMADVYGRLTGKAGVCLSTLGPGATNLMTGVADANLDGAPLVAITGQVGTDRMHIESHQYLDLVAMFAPVTKWNKQIVRPGITPEVVRRAFKTAQSEKPGAVHIDLPENIAAMAADGHPLPLDSQEKVYASYRTLNMAAAVISKAKNPLILAGNGAIRANASEALTEFATALNIPVANTFMGKGVIPYTHPLALWAVGLQQRDLISCAFERSDLIIAVGYDLIEYSPKKWNPDGKLPIIHIGMTPAEIDSSYAPVVEVVGDITDSLIDILKRADRQNKPTPVTAGLKTEIRADYETYANDTGFPIKPQKLIYDLRQVMGPEDIAICDVGAHKMWMARQYHSDCPNTCIISNGFAAMGIAIPGAIAAKLVYPNKRIVAVTGDGGFMMNCQELETALRVGTPFVTLIFNDGGAGLIEWKQLNYFGTSSFIKFGNPDFVKFAESMGLKGYRVESTQDLIPTLEEAFRQEVPTVIDVPVDYGENLRLSQKSGDLSCQIWE | 1480 ± 270 | 1.23 ± 0.25 | 0.090 ± 0.021 | –
3 | MaKGD (Microcystis aeruginosa NIES-843; M410A) (protein, full length, pET28a (NdeI/XhoI), E. coli BL21(DE3) with chaperone plasmid pTf16, imidazole-eluted; codon-optimised gene) MGELNTAELLVKCLENEGVEYIFGLPGEENLDVLEALKNSSIKFITTRHEQGAAFMADVYGRLTGKAGVCLSTLGPGATNLMTGVADANLDGAPLVAITGQVGTDRMHIESHQYLDLVAMFAPVTKWNKQIVRPGITPEVVRRAFKTAQSEKPGAVHIDLPENIAAMAADGHPLPLDSQEKVYASYRTLNMAAAVISKAKNPLILAGNGAIRANASEALTEFATALNIPVANTFMGKGVIPYTHPLALWAVGLQQRDLISCAFERSDLIIAVGYDLIEYSPKKWNPDGKLPIIHIGMTPAEIDSSYAPVVEVVGDITDSLIDILKRADRQNKPTPVTAGLKTEIRADYETYANDTGFPIKPQKLIYDLRQVMGPEDIAICDVGAHKMWMARQYHSDCPNTCIISNGFAAAGIAIPGAIAAKLVYPNKRIVAVTGDGGFMMNCQELETALRVGTPFVTLIFNDGGYGLIEWKQLNYFGTSSFIKFGNPDFVKFAESMGLKGYRVESTQDLIPTLEEAFRQEVPTVIDVPVDYGENLRLSQKSGDLSCQIWE | – | – | 0.046 ± 0.010 | –
4 | MaKGD (Microcystis aeruginosa NIES-843; D435E) (protein, full length, pET28a (NdeI/XhoI), E. coli BL21(DE3) with chaperone plasmid pTf16, imidazole-eluted; codon-optimised gene) MGELNTAELLVKCLENEGVEYIFGLPGEENLDVLEALKNSSIKFITTRHEQGAAFMADVYGRLTGKAGVCLSTLGPGATNLMTGVADANLDGAPLVAITGQVGTDRMHIESHQYLDLVAMFAPVTKWNKQIVRPGITPEVVRRAFKTAQSEKPGAVHIDLPENIAAMAADGHPLPLDSQEKVYASYRTLNMAAAVISKAKNPLILAGNGAIRANASEALTEFATALNIPVANTFMGKGVIPYTHPLALWAVGLQQRDLISCAFERSDLIIAVGYDLIEYSPKKWNPDGKLPIIHIGMTPAEIDSSYAPVVEVVGDITDSLIDILKRADRQNKPTPVTAGLKTEIRADYETYANDTGFPIKPQKLIYDLRQVMGPEDIAICDVGAHKMWMARQYHSDCPNTCIISNGFAAMGIAIPGAIAAKLVYPNKRIVAVTGEGGFMMNCQELETALRVGTPFVTLIFNDGGYGLIEWKQLNYFGTSSFIKFGNPDFVKFAESMGLKGYRVESTQDLIPTLEEAFRQEVPTVIDVPVDYGENLRLSQKSGDLSCQIWE | – | – | 0.041 ± 0.003 | –
5 | MaKGD (Microcystis aeruginosa NIES-843; D462N) (protein, full length, pET28a (NdeI/XhoI), E. coli BL21(DE3) with chaperone plasmid pTf16, imidazole-eluted; codon-optimised gene) MGELNTAELLVKCLENEGVEYIFGLPGEENLDVLEALKNSSIKFITTRHEQGAAFMADVYGRLTGKAGVCLSTLGPGATNLMTGVADANLDGAPLVAITGQVGTDRMHIESHQYLDLVAMFAPVTKWNKQIVRPGITPEVVRRAFKTAQSEKPGAVHIDLPENIAAMAADGHPLPLDSQEKVYASYRTLNMAAAVISKAKNPLILAGNGAIRANASEALTEFATALNIPVANTFMGKGVIPYTHPLALWAVGLQQRDLISCAFERSDLIIAVGYDLIEYSPKKWNPDGKLPIIHIGMTPAEIDSSYAPVVEVVGDITDSLIDILKRADRQNKPTPVTAGLKTEIRADYETYANDTGFPIKPQKLIYDLRQVMGPEDIAICDVGAHKMWMARQYHSDCPNTCIISNGFAAMGIAIPGAIAAKLVYPNKRIVAVTGDGGFMMNCQELETALRVGTPFVTLIFNNGGYGLIEWKQLNYFGTSSFIKFGNPDFVKFAESMGLKGYRVESTQDLIPTLEEAFRQEVPTVIDVPVDYGENLRLSQKSGDLSCQIWE | 3920 ± 450 | 1.5 ± 0.36 | 0.008 ± 0.001 | –
6 | MaKGD (Microcystis aeruginosa NIES-843; L467A) (protein, full length, pET28a (NdeI/XhoI), E. coli BL21(DE3) with chaperone plasmid pTf16, imidazole-eluted; codon-optimised gene) MGELNTAELLVKCLENEGVEYIFGLPGEENLDVLEALKNSSIKFITTRHEQGAAFMADVYGRLTGKAGVCLSTLGPGATNLMTGVADANLDGAPLVAITGQVGTDRMHIESHQYLDLVAMFAPVTKWNKQIVRPGITPEVVRRAFKTAQSEKPGAVHIDLPENIAAMAADGHPLPLDSQEKVYASYRTLNMAAAVISKAKNPLILAGNGAIRANASEALTEFATALNIPVANTFMGKGVIPYTHPLALWAVGLQQRDLISCAFERSDLIIAVGYDLIEYSPKKWNPDGKLPIIHIGMTPAEIDSSYAPVVEVVGDITDSLIDILKRADRQNKPTPVTAGLKTEIRADYETYANDTGFPIKPQKLIYDLRQVMGPEDIAICDVGAHKMWMARQYHSDCPNTCIISNGFAAMGIAIPGAIAAKLVYPNKRIVAVTGDGGFMMNCQELETALRVGTPFVTLIFNDGGYGAIEWKQLNYFGTSSFIKFGNPDFVKFAESMGLKGYRVESTQDLIPTLEEAFRQEVPTVIDVPVDYGENLRLSQKSGDLSCQIWE | 1220 ± 510 | 2.7 ± 0.32 | 0.026 ± 0.004 | –
7 | MaKGD (Microcystis aeruginosa NIES-843; D462E) (protein, full length, pET28a (NdeI/XhoI), E. coli BL21(DE3) with chaperone plasmid pTf16, imidazole-eluted; codon-optimised gene) MGELNTAELLVKCLENEGVEYIFGLPGEENLDVLEALKNSSIKFITTRHEQGAAFMADVYGRLTGKAGVCLSTLGPGATNLMTGVADANLDGAPLVAITGQVGTDRMHIESHQYLDLVAMFAPVTKWNKQIVRPGITPEVVRRAFKTAQSEKPGAVHIDLPENIAAMAADGHPLPLDSQEKVYASYRTLNMAAAVISKAKNPLILAGNGAIRANASEALTEFATALNIPVANTFMGKGVIPYTHPLALWAVGLQQRDLISCAFERSDLIIAVGYDLIEYSPKKWNPDGKLPIIHIGMTPAEIDSSYAPVVEVVGDITDSLIDILKRADRQNKPTPVTAGLKTEIRADYETYANDTGFPIKPQKLIYDLRQVMGPEDIAICDVGAHKMWMARQYHSDCPNTCIISNGFAAMGIAIPGAIAAKLVYPNKRIVAVTGDGGFMMNCQELETALRVGTPFVTLIFNEGGYGLIEWKQLNYFGTSSFIKFGNPDFVKFAESMGLKGYRVESTQDLIPTLEEAFRQEVPTVIDVPVDYGENLRLSQKSGDLSCQIWE | 2380 ± 630 | 9 ± 0.47 | 0.761 ± 0.143 | –
8 | MiKGD (Microcystis aeruginosa NIES-4325) (protein, full length, pET28a (NdeI/XhoI), E. coli BL21(DE3) with chaperone plasmid pTf16; codon-optimised gene) MGELNTAELLVKCLENEGVEYIFGLPGEENLDVLEALKNSSIKFITTRHEQGAAFMADVYGRLTGKAGVCLSTLGPGATNLMTGVADANLDGAPLVAITGQVGTDRMHIESHQYLDLVAMFAPVTKWNKQIVRPGITPEVVRRAFKTAQSEKPGAVHIDLPENIAAMPADGHPLPLDSQEKVYASYRTLNMAAAVISKAKNPLILAGNGAIRANASEALTEFATALNIPVANTFMGKGVIPYTHPLALWAVGLQQRDLISCAFDRSDLIIAVGYDLIEYSPKKWNPEGKLPIIHIGMTPAEIDSSYAPVVEVVGDITDSLIDILKRADRQNKPTPVTAGLKTEIRADYETYANDTGFPIKPQKLIYDLRQVMGPEDIVISDVGAHKMWMARQYHSDCPNTCIISNGFAAMGIAIPGAIAAKLVHPDKRVVAVTGDGGFMMNCQELETALRVGTPFVTLIFNDGGYGLIEWKQFNYFGTSSFIKFGNPDFVKFAESMGLKGYRVESAQDLIPILEEAFQQEVPTVIDVPVDYGENLRLSQKSGDLSCQIWE | 4470 ± 630 | 4.33 ± 0.37 | – | K0.5 (purified protein [3]; half-saturation of activity): 0.026 ± 0.006 mM; kcat/Km (purified protein [1]): 970 M⁻¹ s⁻¹
9 | StKGD (Synechocystis sp. PCC 6803 substr. Kazusa) (protein, recombinant, coexpressed with chaperone plasmid pTf16 and purified again in this study) MGQMNTADLLVQCLENEDVEYIFGVPGEENLHILEALKNSPIRFITTRHEQGAAFMADVYGRLTGKAGVCLSTLGPGATNLMTGVADANLDGAPLVAITGQVGTDRMHIESHQYLDLVAMFDPVTKWTRQIVRPSITPEVVRKAFKLAQSEKPGATHIDLPENIAAMPVDGKPLRRDSREKVYAAFRTLGTAANAISKAKNPIILAGNGTIRAEASEALTEFATSLNIPVANTFMGKGTMPYTHPLSLWTVGLQQRDHITCAFEKSDLVIAVGYDLIEYSPKKWNPTGDLPIIHIGATPAEIDSSYIPQVEVVGDITDSLMDLLKRCDRQGKPTPYGASLRAEIRAEYECYANDTGFPVKPQKIIYDLRQVMGPDDVVISDVGAHKMWMARHYHCDSPNTCLISNGFAAMGIAIPGAIAAKLVYPERNIVAVTGDGGFMMNCQELETAMRVGTPFVTLIFNDNGYGLIEWKQINQFGESSFIKFGNPDFVKFAESMGLKGYRVEAAADLIPILKEALAQPVPTVIDCPVDYRENIRFSQKAGELACEIWE | – | – | – | Km (purified protein [4]): 3830 ± 750 µM; kcat (purified protein [4]): 3.07 ± 0.42 s⁻¹; kcat/Km (purified protein [4]): 800 M⁻¹ s⁻¹; K0.5 (purified protein [2]; purified from coexpression with pTf16): 0.063 ± 0.019 mM

— publication PMC10418658, “Biochemical and Structural Insights into a Thiamine Diphosphate-Dependent α-Ketoglutarate Decarboxylase from Cyanobacterium Microcystis aeruginosa NIES-843” (International Journal of Molecular Sciences, 2023)
